The values below come from US20050079543A1 (ROCKEFELLER UNIVERSITY, published 2005).

Data set [1] concerns the molecule itself. The experiment in a line: gel mobility shift with extracts of C84 cells. The procedure:
(§1) Mobility shift analysis was performed with extracts from these stable cell lines (FIG. 18B). Extracts of IFN-γ-treated C84 cells produced a faster migrating gel shift band than extracts of treated C91L cells. Most importantly, extracts from IFN-γ-treated Cmx cells expressing both Stat84 and Stat91L proteins formed an additional intermediate gel shift band. Anti-91, an antiserum against the C-terminal 38 amino acids of Stat91 (12) that are absent in Stat84, specifically removed the top two shift bands seen with the Cmx extracts. Anti-91, an antiserum against amino acids 609 to 716 (15) that recognizes both Stat91L and Stat84, proteins inhibited the binding of all three shift bands. Thus, the middle band formed by extracts of the Cmx cells is clearly identified as a heterodimer of Stat84 and Stat91L. We concluded that both Stat91 and Stat84 bind DNA as homodimers and, if present in the same cell, will form heterodimers.

Data set [2] has as its target T1, Stat91L, activated (from IFN-γ-treated C91L or Cmx cells) (human, UniProt P42224 2-750, activated by IFN-γ treatment of the cells; phosphotyrosine at 701 as stated for Stat91).
T1 construct: Expressed in U3A cells that lack Stat91/84; also called long form of Stat91; MNC-91L product; not shown: C-terminal tag of 34 amino acids encoded by the pMNC vector
T1 sequence: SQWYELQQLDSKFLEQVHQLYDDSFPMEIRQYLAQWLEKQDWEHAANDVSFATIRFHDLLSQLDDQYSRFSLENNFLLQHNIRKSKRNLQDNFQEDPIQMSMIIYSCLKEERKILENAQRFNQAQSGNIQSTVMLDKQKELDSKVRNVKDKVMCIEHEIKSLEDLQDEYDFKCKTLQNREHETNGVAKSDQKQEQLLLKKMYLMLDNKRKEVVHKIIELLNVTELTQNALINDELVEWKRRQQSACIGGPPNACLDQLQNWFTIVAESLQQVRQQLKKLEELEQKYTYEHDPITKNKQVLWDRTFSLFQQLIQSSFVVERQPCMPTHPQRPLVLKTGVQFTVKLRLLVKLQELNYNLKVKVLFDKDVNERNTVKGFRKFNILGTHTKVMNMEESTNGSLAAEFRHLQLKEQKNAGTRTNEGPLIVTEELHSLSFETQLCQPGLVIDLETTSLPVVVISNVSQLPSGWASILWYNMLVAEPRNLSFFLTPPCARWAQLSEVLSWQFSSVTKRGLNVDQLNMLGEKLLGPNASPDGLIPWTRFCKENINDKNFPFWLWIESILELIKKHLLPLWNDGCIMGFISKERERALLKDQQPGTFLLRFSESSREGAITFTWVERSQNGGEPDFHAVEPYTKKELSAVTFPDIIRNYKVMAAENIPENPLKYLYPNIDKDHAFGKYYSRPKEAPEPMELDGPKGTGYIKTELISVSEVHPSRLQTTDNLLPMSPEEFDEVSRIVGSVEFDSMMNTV
Briefly: gel mobility shift with extracts of cells that express both proteins, with antisera. The protocol:
as §1

B1: Stat84, activated (from IFN-γ-treated C84 or Cmx cells) (other)
chain: SQWYELQQLDSKFLEQVHQLYDDSFPMEIRQYLAQWLEKQDWEHAANDVSFATIRFHDLLSQLDDQYSRFSLENNFLLQHNIRKSKRNLQDNFQEDPIQMSMIIYSCLKEERKILENAQRFNQAQSGNIQSTVMLDKQKELDSKVRNVKDKVMCIEHEIKSLEDLQDEYDFKCKTLQNREHETNGVAKSDQKQEQLLLKKMYLMLDNKRKEVVHKIIELLNVTELTQNALINDELVEWKRRQQSACIGGPPNACLDQLQNWFTIVAESLQQVRQQLKKLEELEQKYTYEHDPITKNKQVLWDRTFSLFQQLIQSSFVVERQPCMPTHPQRPLVLKTGVQFTVKLRLLVKLQELNYNLKVKVLFDKDVNERNTVKGFRKFNILGTHTKVMNMEESTNGSLAAEFRHLQLKEQKNAGTRTNEGPLIVTEELHSLSFETQLCQPGLVIDLETTSLPVVVISNVSQLPSGWASILWYNMLVAEPRNLSFFLTPPCARWAQLSEVLSWQFSSVTKRGLNVDQLNMLGEKLLGPNASPDGLIPWTRFCKENINDKNFPFWLWIESILELIKKHLLPLWNDGCIMGFISKERERALLKDQQPGTFLLRFSESSREGAITFTWVERSQNGGEPDFHAVEPYTKKELSAVTFPDIIRNYKVMAAENIPENPLKYLYPNIDKDHAFGKYYSRPKEAPEPMELDGPKGTGYIKTELISVSEV
modifications: activated by IFN-γ treatment of the cells (tyrosine phosphorylation; Tyr-701 is stated for Stat91)
notes: Expressed in U3A cells that lack Stat91/84; also called MNC-84 product
For the molecule B1, the binding result in data set [1] and in data set [2] was “binds” each time.
